In PMC4694050 (Journal of the American Chemical Society, 2015):
Residue numbers refer to the chain shown, from its start. In names and notes the source's numbering stands.

Columns and labels:
[1] = test system: Triosephosphate Isomerase from Yeast; assay type: biochemical, Saccharomyces cerevisiae; details: isomerization of DHAP; pH 7.5, 25 °C, I = 0.1 (NaCl)
[2] = test system: Triosephosphate Isomerase from Yeast; assay type: biochemical, Saccharomyces cerevisiae; details: for GAP kcat: 30 mM triethanolamine pH 7.5, 25 °C
[3] = biological target: T1, Triosephosphate Isomerase from Yeast (Saccharomyces cerevisiae, UniProt P00942, Y208F); assay type: biochemical
T1 sequence (P00942 2-248 Y208F): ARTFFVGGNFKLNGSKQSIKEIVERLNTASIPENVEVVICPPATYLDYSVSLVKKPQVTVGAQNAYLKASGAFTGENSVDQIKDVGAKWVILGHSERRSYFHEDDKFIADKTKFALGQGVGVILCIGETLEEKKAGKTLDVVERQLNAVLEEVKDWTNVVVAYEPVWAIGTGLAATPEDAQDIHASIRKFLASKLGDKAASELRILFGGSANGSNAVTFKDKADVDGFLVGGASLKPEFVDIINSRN

[4] = biological target: T1, Triosephosphate Isomerase from Yeast; details: isomerization of [l-^2H]-dihydroxyacetone phosphate; cited from earlier work
[5] = test system: yTIM; assay type: biochemical, Saccharomyces cerevisiae; details: unactivated deprotonation of glycolaldehyde
[6] = test system: TIM from chicken muscle; details: chicken muscle TIM loop replacement mutant; pH 7.5, 25 °C; cited from earlier work
[7] = test system: TIM from chicken muscle; details: chicken muscle TIM loop replacement mutant; pH 7.5, 25 °C; cited from earlier work; remark: listed apart in the source
[8] = test system: TIM from chicken muscle; details: cited from earlier work
[9] = test system: ketosteroid isomerase (KSI) from Pseudomonas putida; details: cited from earlier work
[10] = isomerization of GAP, I = 0.1 (NaCl)

B1: S211G (protein, UniProt P00942 2-248, looked up, variant S211G)
Triosephosphate isomerase: T1 sequence (P00942 2-248 Y208F) with F207Y, S210G
Q: For B1, which DHAP kcat [1] is on record?
A: 810 ± 10 s^–1

Q: And the “activity relative to S211A TIM” value ([2]; S211G greater than S211A)?
A: 20 fold

Q: What about the GAP kcat [2, 10] of the same molecule?
A: 7500 ± 500 s^–1

B2: wildtype: wildtype triosephosphate isomerase from Saccharomyces cerevisiae (yTIM) (protein, UniProt P00942 2-248, looked up)
Triosephosphate isomerase: T1 sequence (P00942 2-248 Y208F) with F207Y
Q: For B2, which DHAP kcat [1] is on record?
A: 860 ± 10 s^–1

Q: And the GAP kcat [2, 10]?
A: 8900 ± 700 s^–1

B3: Y208F: Y208F loop 7 mutant of yeast triosephosphate isomerase (protein, UniProt P00942 2-248, looked up, variant Y208F)
Triosephosphate isomerase: T1 sequence (P00942 2-248 Y208F)
Q: For B3, which DHAP kcat [1] is on record?
A: 4.5 ± 0.3 s^–1

Q: And the “reduction in enzyme activity compared to the Y208A and Y208S mutants” value [2]?
A: ca. 50 fold

Q: And the GAP kcat [2, 10]?
A: 13 ± 1 s^–1

Q: And the “reduction in kcat implied by deviation from Figure 7 correlation” value ([3]; kcat for GAP vs Kd^⧧ correlation)?
A: 40 fold

Q: And the “negative deviation from the correlation in Figure 7” value ([3]; log kcat for GAP vs intrinsic dianion binding energy)?
A: 1.6 log unit

Q: What about the “primary deuterium kinetic isotope effect kH/kD on kcat/Km” value [4] of the same molecule?
A: 6

Q: What about the “decrease in (kcat/Km)E compared with wildtype” value [5] of the same molecule?
A: 20 fold

B4: Y208S (protein, UniProt P00942 2-248, looked up, variant Y208S)
Triosephosphate isomerase: T1 sequence (P00942 2-248 Y208F) with F207S
Q: For B4, which DHAP kcat [1] is on record?
A: 250 ± 5 s^–1

Q: What about the GAP kcat [2, 10] of the same molecule?
A: 940 ± 30 s^–1

B5: Y208A (protein, UniProt P00942 2-248, looked up, variant Y208A)
Triosephosphate isomerase: T1 sequence (P00942 2-248 Y208F) with F207A
Q: Which results are given for B5?
A: DHAP kcat [1]: 210 ± 5 s^–1; GAP kcat [2, 10]: 740 ± 10 s^–1

B6: Y208T (protein, UniProt P00942 2-248, looked up, variant Y208T)
Triosephosphate isomerase: T1 sequence (P00942 2-248 Y208F) with F207T
Q: What does the source list for B6?
A: DHAP kcat [1]: 580 ± 10 s^–1; GAP kcat [2, 10]: 3700 ± 50 s^–1

B7: Y208T/S211G (protein, UniProt P00942 2-248, looked up, variant Y208T S211G)
Triosephosphate isomerase: T1 sequence (P00942 2-248 Y208F) with F207T, S210G
Q: With B7 as the molecule, how does the DHAP kcat [1] read?
A: 135 ± 5 s^–1

Q: What about the “DHAP kcat/Km” value [1] of the same molecule?
A: (3.4 ± 0.2) × 10^4 M^–1 s^–1

Q: What about the GAP kcat [2, 10] of the same molecule?
A: 520 ± 30 s^–1

Q: And the “GAP kcat/Km (upper value)” value ([2]; isomerization of GAP, pH 7.5, 25 °C, I = 0.1 (NaCl), calculated for total concentration of GAP)?
A: (7.3 ± 0.8) × 10^5 M^–1 s^–1

Q: What about the “GAP kcat/Km (lower value)” value ([2]; isomerization of GAP, pH 7.5, 25 °C, calculated for the reactive carbonyl form, 4% of total GAP) of the same molecule?
A: 1.8 × 10^7 M^–1 s^–1

B8: S211A (protein, UniProt P00942 2-248, looked up, variant S211A)
Triosephosphate isomerase: T1 sequence (P00942 2-248 Y208F) with F207Y, S210A
Q: With B8 as the molecule, how does the DHAP kcat [1] read?
A: linear plot

Q: What about the GAP kcat [2, 10] of the same molecule?
A: 2800 ± 100 s^–1

Q: What about the “decrease in (kcat/Km)E compared with wildtype” value [5] of the same molecule?
A: 30 fold

B9: 208-TGAG for 208-YGGS (LRM): 208-TGAG for 208-YGGS loop 7 replacement mutation of TIM from chicken muscle (protein, UniProt P00940 2-248, looked up, variant Y208T G210A S211G)
Triosephosphate isomerase: APRKFFVGGNWKMNGDKKSLGELIHTLNGAKLSADTEVVCGAPSIYLDFARQKLDAKIGVAAQNCYKVPKGAFTGEISPAMIKDIGAAWVILGHSERRHVFGESDELIGQKVAHALAEGLGVIACIGEKLDEREAGITEKVVFEQTKAIADNVKDWSKVVLAYEPVWAIGTGKTATPQQAQEVHEKLRGWLKSHVSDAVAQSTRIITGAGVTGGNCKELASQHDVDGFLVGGASLKPEFVDIINAKH
Q: With B9 as the molecule, how does the GAP kcat [6] read?
A: 16 s^–1

Q: What about the DHAP kcat [7] of the same molecule?
A: 8.0 s^–1

Q: What about the “(kcat/Km)E•HPi/Kd” value ([8]; chicken muscle TIM loop replacement mutant, third-order rate constant) of the same molecule?
A: 95 M^–2 s^–1

Q: What about the “effect of mutation on [(kcat/Km)E]obs: KC” value ([8]; chicken muscle TIM) of the same molecule?
A: no change

B10: Y16F: Y16F mutant of ketosteroid isomerase (KSI) from Pseudomonas putida (protein, UniProt P07445 1-131, looked up, variant Y16F)
Steroid Delta-isomerase: MNLPTAQEVQGLMARFIELVDVGDIEAIVQMYADDATVEDPFGQPPIHGREQIAAFYRQGLGGGKVRACLTGPVRASHNGCGAMPFRVEMVWNGQPCALDVIDVMRFDEHGRIQTMQAYWSEVNLSVREPQ
Q: For B10, which falloff in activity [9] is on record?
A: 5000 fold

Q: What about the “falloff in activity (decrease in kcat/Km) relative to that for Y16A, Y16G, Y16S and Y16T mutants” value [9] of the same molecule?
A: ca. 100 fold
